± gives the uncertainty stated by the source.
Assay: protein stability index of a GFP-peptide fusion (yeast GPS) (PSI 1-4); higher = more stable; sorted into four equal gates, so the index is relative within each strain
Summary of the method: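 Plasmids isolated from each sorting gate were PCR-amplified and Illumina-sequenced, and barcodes assigned the reads to strains. The gates, four of equal size, were set by GFP/Cherry fluorescence ratio on mid-log cultures in leucine-free medium. These cultures were yeast carrying a pooled library of tiled 17-residue yeast protein peptides fused downstream of GFP on a plasmid that also expresses Cherry. The protein stability index is the sum of every gate's read frequency times its gate number.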

| Sequence | protein stability index (doa10∆) | protein stability index (pdr5∆) | protein stability index (san1∆) | protein stability index (ubr1∆) |
| --- | --- | --- | --- | --- |
| TRDEKDPKRLFEGNALI [RPS9A] | 3.55 ± 0.2 | 3.6 ± 0.12 | 2.97 ± 0.18 | 3.71 ± 0.15 |
| TRFPPAVFYTPKELGGL [PRP8] | 3.19 ± 0.076 | 3.08 ± 0.07 | 3.25 ± 0.068 | 3.04 ± 0.063 |
| TRGRNIIMHKDVEIGRM [RET1] |  | 3.1 ± 0.16 | 2.98 ± 0.076 | 2.74 ± 0.15 |
| TRGRSATIRETYEIICD [RRP43] | 2.59 ± 0.049 | 2.68 ± 0.05 | 2.57 ± 0.058 | 2.62 ± 0.035 |
| TRLLNIVMQLRKCCNHP [ISW2] | 2.65 ± 0.062 | 2.84 ± 0.061 | 2.94 ± 0.049 | 2.84 ± 0.057 |
| TRSIKEKWLLNQIPVTE [SRB6] | 1.13 ± 0.1 | 1.34 ± 0.18 | 1.29 ± 0.19 | 1.18 ± 0.17 |
| TRTVITDWDPQFNAITG [SMC2] | 2.96 ± 0.099 | 2.99 ± 0.083 | 2.67 ± 0.1 | 2.76 ± 0.098 |
| TRYMFQRDFRKHGAVHM [RPL21B] | 2.22 ± 0.099 | 2.14 ± 0.06 | 1.79 ± 0.12 | 1.99 ± 0.077 |
| TSAHEAIRADPAFKPTE [RPL5] | 3.24 ± 0.15 | 3.17 ± 0.14 | 3.11 ± 0.089 | 3.33 ± 0.11 |
| TSASQPFKFGKTSEKSE [YOR098C/NUP1] | 3.1 ± 0.14 | 3.22 ± 0.15 | 2.96 ± 0.13 | 3.17 ± 0.093 |
| TSCLQNNNQKIDDNYIV [SRB8] | 3.15 ± 0.072 | 3.1 ± 0.081 | 3.33 ± 0.11 | 3.05 ± 0.062 |
| TSDGALSVMCGCGTVKR [RPR2] | 2.43 ± 0.13 | 2.67 ± 0.1 | 1.93 ± 0.14 | 1.78 ± 0.13 |
| TSINHKIYRVGKGDDEA [RPL3] | 3.44 ± 0.071 | 3.61 ± 0.1 | 3.67 ± 0.044 | 3.28 ± 0.11 |
| TSLPDWCQEAFPSSETT [BRR2] | 2.93 ± 0.075 | 3.08 ± 0.099 | 3.25 ± 0.072 | 3.01 ± 0.15 |
| TSNKEGFNSIWKIPQND [SSN2] | 3.29 ± 0.26 | 3.72 ± 0.3 | 3.45 ± 0.15 |  |
| TSPGYSPGSPAYSPKQD [RPO21] | 2.31 ± 0.087 | 2.1 ± 0.063 | 2.39 ± 0.11 | 1.77 ± 0.05 |
| TSQKMTSTVNRLNTVTR [MCD1] | 3.16 ± 0.094 | 2.94 ± 0.18 | 3.57 ± 0.18 | 3.09 ± 0.098 |
| TSRIDEEKPGLIITRKA [SMC4] | 2.91 ± 0.063 | 3.07 ± 0.052 | 3.07 ± 0.044 | 3 ± 0.057 |
| TSSAFFYQQVHKKDRLQ [SIR4] | 2.43 ± 0.048 | 2 ± 0.046 | 2.26 ± 0.053 | 2.44 ± 0.032 |
| TSSLQLYKFQNFQDLSY [YML103C/NUP188] | 2.81 ± 0.065 | 3.04 ± 0.064 | 2.84 ± 0.055 | 2.65 ± 0.071 |
| TSSRQTVFLPMVGLVDP [RPT5] | 2.55 ± 0.038 | 2.62 ± 0.044 | 2.39 ± 0.044 | 2.16 ± 0.033 |
| TSSTPSPIKNGSCTRQL [YOR098C/NUP1] | 3.26 ± 0.064 | 3.02 ± 0.045 | 2.68 ± 0.046 | 3.09 ± 0.049 |
| TSSVILGSQSKSDEGGS [YOR098C/NUP1] |  | 2.23 ± 0.12 |  | 1.81 ± 0.15 |
| TSTITKYKQLLLKDDTY [RPN3] | 2.71 ± 0.12 | 2.73 ± 0.15 | 2.89 ± 0.073 | 2.9 ± 0.084 |
| TSTNPNGLGTSHINTNV [ARP7] | 3.14 ± 0.068 | 3.28 ± 0.061 | 2.96 ± 0.061 | 3.33 ± 0.057 |

| Sequence | protein stability index (doa10∆) | protein stability index (pdr5∆) | protein stability index (san1∆) | protein stability index (ubr1∆) |
| --- | --- | --- | --- | --- |
| TSVTRRSPVFALNMLPS [GRR1] | 1.45 ± 0.038 | 1.61 ± 0.037 | 1.51 ± 0.061 | 1.73 ± 0.033 |
| TTGGDYILSLVSIKDST [YMR129W/POM152] | 1.99 ± 0.042 | 2.04 ± 0.034 | 1.89 ± 0.052 | 1.68 ± 0.028 |
| TTKRLWSEITESMSYLP [MCD1] | 3.01 ± 0.12 | 2.91 ± 0.095 | 2.99 ± 0.11 | 2.73 ± 0.069 |
| TTLGKLSTSVGWKYEDV [RPL16A] | 2.87 ± 0.069 | 3 ± 0.071 | 2.97 ± 0.078 | 2.73 ± 0.073 |
| TTLNIKVEKRVLGLTIL [SMB1] | 1.86 ± 0.075 | 2.79 ± 0.093 | 2.39 ± 0.14 | 2.27 ± 0.08 |
| TTLVTRREELQQRIREI [SMC3] | 3.06 ± 0.2 |  |  |  |
| TTPYMTKYERARILGTR [RPO26] | 2.97 ± 0.14 | 3.3 ± 0.091 | 2.56 ± 0.18 | 3.45 ± 0.09 |
| TTQDQCKLTLDINVELF [RPB8] | 2.97 ± 0.054 | 2.96 ± 0.07 | 2.93 ± 0.037 | 3.3 ± 0.053 |
| TTSYIKEQENITIQDLL [DPB4] | 3.09 ± 0.19 | 2.83 ± 0.17 | 2.86 ± 0.082 | 3.02 ± 0.27 |
| TTTLAFRFQGGIIVAVD [PRE2] | 3.27 ± 0.096 | 3.07 ± 0.083 | 2.81 ± 0.072 | 3.26 ± 0.09 |
| TTTSFTTSEATANDRQI [RPN4] | 2.95 ± 0.051 | 3.13 ± 0.055 | 2.55 ± 0.063 | 3.25 ± 0.042 |
| TTVKPLFQNVPEQGEEP [YAR002W/NUP60] | 3.08 ± 0.07 | 3.3 ± 0.06 | 3.32 ± 0.04 | 3.21 ± 0.052 |
| TVDGRLYQLFKTCIQGI [YJL039C/NUP192] | 2.86 ± 0.16 | 2.98 ± 0.23 | 3.03 ± 0.11 |  |
| TVGSSNGGLIHVVTREK [RPO21] | 2.98 ± 0.15 | 3.19 ± 0.12 | 2.87 ± 0.13 | 3.09 ± 0.07 |
| TVISGDPNLELDQVGVP [RPO21] | 3.48 ± 0.23 | 3.2 ± 0.13 | 2.48 ± 0.23 | 3.04 ± 0.16 |
| TVKTSDDYVLRIFAIAF [RPS1A] | 2.534 ± 0.02 | 2.308 ± 0.018 | 2.453 ± 0.023 | 2.55 ± 0.016 |
| TVLQKNSLLLDSTPEEV [YML103C/NUP188] | 2 ± 0.052 | 2.28 ± 0.063 | 1.38 ± 0.079 | 1.42 ± 0.049 |
| TVRASSLQDLIYKRGQA [SMC2] | 2.12 ± 0.073 | 3 ± 0.088 | 2.62 ± 0.08 | 2.51 ± 0.036 |
| TYANVLIPCKYLNRHAD [RPN7] | 1.1 ± 0.08 | 1.25 ± 0.089 | 1.18 ± 0.13 | 1.19 ± 0.095 |
| TYEIICDQTKSVPLMIN [RRP43] | 1.66 ± 0.073 | 2.3 ± 0.11 | 1.49 ± 0.11 | 1.55 ± 0.069 |
| TYGISVVDVALKYPELS [NUT1] | 2.04 ± 0.057 | 2.42 ± 0.075 | 2.04 ± 0.078 | 2.6 ± 0.041 |
| TYRCSIKNLPADVSKLM [SRB2] | 2.56 ± 0.061 | 2.83 ± 0.05 | 2.33 ± 0.05 | 2.69 ± 0.044 |
| VAAERAARKAANKEKRA [RPL7A] | 2.36 ± 0.21 | 1.54 ± 0.12 |  | 1.71 ± 0.082 |
| VAGSKCWAVRADVHFLD [RRP45] | 2.07 ± 0.17 | 2.23 ± 0.14 |  | 2.26 ± 0.22 |
